# Measurements reported in patent publication US20080038731.
# T1: IkBα, P25963
# T1 chain: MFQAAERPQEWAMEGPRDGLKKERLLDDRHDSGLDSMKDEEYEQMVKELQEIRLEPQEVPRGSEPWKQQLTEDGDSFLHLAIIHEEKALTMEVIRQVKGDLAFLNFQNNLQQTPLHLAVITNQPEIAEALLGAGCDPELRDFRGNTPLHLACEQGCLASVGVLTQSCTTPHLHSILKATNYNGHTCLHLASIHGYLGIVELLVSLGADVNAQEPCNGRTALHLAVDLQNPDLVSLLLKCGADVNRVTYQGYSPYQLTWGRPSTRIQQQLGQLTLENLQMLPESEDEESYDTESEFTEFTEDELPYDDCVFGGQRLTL
# B1: purified topors (protein)
# chain: MGSQPPLGSPLSREEGEAPPPAPASEGRRRSRRVRLRGSCRHRPSFLGCRELAASAPARPAPASSEIMASAAKEFKMDNFSPKAGTSKLQQTVPADASPDSKCPICLDRFDNVSYLDRCLHKFCFRCVQEWSKNKAECPLCKQPFDSIFHSVRAEDDFKEYVLRPSYNGSFVTPDRRFRYRTTLTRERNASVYSPSGPVNRRTTTPPDSGVLFEGLGISTRPRDVEIPQFMRQIAVRRPTTADERSLRKIQEQDIINFRRTLYRAGARVRNIEDGGRYRDISAEFFRRNPACLHRLVPWLKRELTVLFGAHGSLVNIVQHIIMSNVTRYDLESQAFVSDLRPFLLNRTEHFIHEFISFARSPFNMAAFDQHANYDCPAPSYEEGSHSDSSVITISPDEAETQELDINVATVSQAPWDDETPGPSYSSSEQVHVTMSSLLNTSDSSDEELVTGGATSQIQGVQTNDDLNNDSDDSSDNCVIVGFVKPLAERTPELVELSSDSEDLGSYEKMETVKTQEQEQSYSSGDSDVSRCSSPHSVLGKDEQINKGHCDSSTRIKSKKEEKRSTSLSSPRNLNSSVRGDRVYSPYNHRHRKRGRSRSSDSRSQSRSGHDQKNHRKHHGKKRMKSKRSRSRESSRPRGRRDKKRSRTRDSSWSRRSQTLSLSSESTSRSRSRSSDHGKRRSRSRNRDRYYLRNNYGSRYKWEYTYYSRNKDRDGYESSYRRRTLSRAHYSRQSSSPEFRVQSFSERTNARKKNNHSERKYYYYERHRSRSLSSNRSRTASTGTDRVRNEKPGGKRKYKTRHLEGTNEVAQPSREFASKAKDSHYQKSSSKLDGNYKNESDTFSDSRSSDRETKHKRRKRKTRSLSVEIVYEGKATDTTKHHKKKKKKHKKKHKKHHGDNASRSPVVITIDSDSDKDSEVKEDTECDNSGPQDPLQNEFLAPSLEPFETKDVVTIEAEFGVLDKECDIATLSNNLNNANKTVDNIPPLAASVEQTLDVREESTFVSDLENQPSNIVSLQTEPSRQLPSPRTSLMSVCLGRDCDMS
# Assays:
# [1] = molecular target: T1, IkBα, P25963
# [2] = molecular target: p53, P04637
# Chain of p53, P04637 (P04637 whole entry, looked up): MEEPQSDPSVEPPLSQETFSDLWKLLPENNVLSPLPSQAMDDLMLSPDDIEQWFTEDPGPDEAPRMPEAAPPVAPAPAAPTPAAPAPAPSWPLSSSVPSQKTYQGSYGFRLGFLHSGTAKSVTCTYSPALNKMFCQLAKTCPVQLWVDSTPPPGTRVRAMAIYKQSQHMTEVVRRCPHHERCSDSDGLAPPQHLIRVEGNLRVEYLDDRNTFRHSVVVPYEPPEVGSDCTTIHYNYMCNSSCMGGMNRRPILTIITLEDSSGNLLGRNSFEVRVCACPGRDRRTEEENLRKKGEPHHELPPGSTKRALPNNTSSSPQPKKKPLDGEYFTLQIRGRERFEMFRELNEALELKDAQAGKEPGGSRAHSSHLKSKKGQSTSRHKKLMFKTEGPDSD
protein,measurement,setting,value
B1,sumoylation of IkBα in vitro,[1],"Topors also activates sumoylation of p53, but not IkBα"
same,sumoylation of p53 in vitro,[2],"Topors also activates sumoylation of p53, but not IkBα"
